From US5604203A, “Analogs of peptide YY and uses thereof” (University of Cincinnati, priority 1994, dated 1997) come the findings set out here.

Like-named read-outs stand apart in the source and are kept apart here. Square brackets hold non-standard residues; d marks the D form. Ends that are not written are not given here. Peptide text beside a SMILES is read from it. Bip = N[C@@H](Cc1ccc(-c2ccccc2)cc1)C(=O)O; Phe(4-Cl) = N[C@@H](Cc1ccc(Cl)cc1)C(=O)O; 2Nal = N[C@@H](Cc1ccc2ccccc2c1)C(=O)O; Tic = O=C(O)[C@@H]1Cc2ccccc2CN1; 2Thi = N[C@@H](Cc1cccs1)C(=O)O Where only a bound is given, the exact number is not on record here.

The test system of one assay is rat jejunal mucosa. The assay can be described thus: Short circuit current (SCC) in voltage clamped rat jejunal mucosa (antisecretory effect). In kind it is cell-based. The method, then: The antisecretory effects of the peptides were investigated by measuring the short-circuit current (SCC) in rat jejunal mucosa mounted in a Ussing chamber and automatically voltage clamped as described by Cox et al. (J. Physiol. supra). Briefly, strips of mucosa were placed between two halves of perspex Ussing chambers (window size, 0.6 cm^2) containing oxygenated (95% O2 /5% CO2) Krebs-Henseleit solution (NaCl, 117 mM, KCl 4.7 mM, CaCl2, 2.5 mM; MgSO4 1.2 mM, NaHCO3 24.8 mM and glucose 11.1 mM), pH 7.4, 37° C. […] Once a stable baseline SCC was reached, peptides were added to the basolateral reservoir only, and cumulative concentration-response profiles constructed.

Assay [1] deals with PYY receptor of rat jejunal epithelial plasma membranes (rat). The assay can be described thus: competition with 125I-PYY on rat jejunal membranes.
The target is the same in assay [2]. Kind of assay: competition with 0.05 nM 125I-PYY on rat jejunal epithelial plasma membranes.
Assay [3] concerns the target T1, intestinal PYY-preferring receptors (Rattus norvegicus, UniProt Q9ERC0).
T1 sequence (Q9ERC0 1-381): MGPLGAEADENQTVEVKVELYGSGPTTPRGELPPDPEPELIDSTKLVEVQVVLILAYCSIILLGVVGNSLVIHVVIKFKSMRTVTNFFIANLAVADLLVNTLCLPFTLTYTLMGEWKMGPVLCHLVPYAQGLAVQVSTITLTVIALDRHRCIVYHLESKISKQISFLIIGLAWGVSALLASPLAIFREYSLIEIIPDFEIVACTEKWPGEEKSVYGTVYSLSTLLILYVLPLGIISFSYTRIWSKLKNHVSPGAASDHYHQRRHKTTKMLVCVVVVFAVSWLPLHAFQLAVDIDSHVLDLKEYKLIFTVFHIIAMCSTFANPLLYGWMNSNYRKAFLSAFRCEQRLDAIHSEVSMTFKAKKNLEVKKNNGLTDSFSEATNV
Description: Bound and free peptides were separated by centrifugation at 20,000×g for 10 min.
All points in the binding experiments are the mean of at least three experiments performed in duplicate.

Assay [4] has as its target PYY receptor of rat jejunal epithelial plasma membranes (rat).
For assay [5] the target is unchanged. Kind of assay: competitive binding, done as described above (125I-PYY, rat jejunal membranes).

Turning to “Ac-ASLRHFLNLVTRQRY-NH2 [N-α-Ac-[Phe^27]PYY(22-36)]”, in the assay on rat jejunal mucosa (1.4 μM, n=7), the “maximal inhibitory response (change in SCC)” value is given as -12.0±1.3 μA/0.6 cm^2. The molecule further showed a concentration for a half-maximal effect (EC50) with rat jejunal mucosa (Table 1, reduction of baseline SCC, rat jejunum, mean of three separate experiments) of 15.1 nM. The “times less potent than the intact hormone (antisecretory potency)” value with rat jejunal mucosa (relative to PYY) is on record as 9 times. As for N-α-Ac-[Phe^27 ]PYY(25-36) (peptide), the IC50 in assay [1] was determined as 0.15 nM.

The molecule [im-DNP-His^26 ]PYY (peptide) returned a half-inhibitory concentration (IC50) in assay [2] of 4 nM.

On to `CC(=O)N[C@@H](C)C(=O)N[C@@H](CO)C(=O)N[C@@H](CC(C)C)C(=O)N[C@@H](CCCNC(=N)N)C(=O)N[C@@H](Cc1c[nH]cn1)C(=O)N[C@@H](Cc1csc2ccccc12)C(=O)N[C@@H](CC(C)C)C(=O)N[C@@H](CC(N)=O)C(=O)N[C@@H](CC(C)C)C(=O)N[C@H](C(=O)N[C@H](C(=O)N[C@@H](CCCNC(=N)N)C(=O)N[C@@H](CCC(N)=O)C(=O)N[C@@H](CCCNC(=N)N)C(=O)N[C@@H](Cc1ccc(O)cc1)C(N)=O)[C@@H](C)O)C(C)C` [Peptide 905, N-α-Ac-A S L R H [Bth] L N L V T R Q R Y--NH2] (HELM PEPTIDE1{[ac].A.S.L.R.H.[O=C([C@H](Cc1csc2ccccc12)N[*:1])[*:2]].L.N.L.V.T.R.Q.R.Y.[am]}$$$$V2.0), for which the concentration for half-maximal inhibition (IC50) in assay [3] (IC50 (nM), Table 2, receptor binding data) stood at 0.22 nM. Regarding PYY(22-36) (peptide), the IC50 in assay [2] was determined as 4 nM. Turning to NPY (neuropeptide Y) (ligand), in assay [2], the half-inhibitory concentration (IC50) came to 2 nM. The molecule `CC(=O)N[C@@H](C)C(=O)N[C@@H](CO)C(=O)N[C@@H](CC(C)C)C(=O)N[C@@H](CCCNC(=N)N)C(=O)N[C@@H](Cc1c[nH]cn1)C(=O)N[C@@H](Cc1ccc(Cl)cc1)C(=O)N[C@@H](CC(C)C)C(=O)N[C@@H](CC(N)=O)C(=O)N[C@@H](CC(C)C)C(=O)N[C@H](C(=O)N[C@H](C(=O)N[C@@H](CCCNC(=N)N)C(=O)N[C@@H](CCC(N)=O)C(=O)N[C@@H](CCCNC(=N)N)C(=O)N[C@@H](Cc1ccc(O)cc1)C(N)=O)[C@@H](C)O)C(C)C` [Peptide 904, N-α-Ac-A S L R H [Pcp] L N L V T R Q R Y--NH2] (HELM PEPTIDE1{[ac].A.S.L.R.H.[O=C([C@H](Cc1ccc(Cl)cc1)N[*:1])[*:2]].L.N.L.V.T.R.Q.R.Y.[am]}$$$$V2.0) displayed an IC50 in assay [3] (IC50 (nM), Table 3, binding activity) of 1.58 nM. In assay [3], `CC(=O)N[C@@H](C)C(=O)N[C@@H](CO)C(=O)N[C@@H](CC(C)C)C(=O)N[C@@H](CCCNC(=N)N)C(=O)N[C@@H](Cc1c[nH]cn1)C(=O)N[C@@H](Cc1ccc2ccccc2c1)C(=O)N[C@@H](CC(C)C)C(=O)N[C@@H](CC(N)=O)C(=O)N[C@@H](CC(C)C)C(=O)N[C@H](C(=O)N[C@H](C(=O)N[C@@H](CCCNC(=N)N)C(=O)N[C@@H](CCC(N)=O)C(=O)N[C@@H](CCCNC(=N)N)C(=O)N[C@@H](Cc1ccc(O)cc1)C(N)=O)[C@@H](C)O)C(C)C` [Peptide 911, N-α-Ac-A S L R H [NaL] L N L V T R Q R Y--NH2] (HELM PEPTIDE1{[ac].A.S.L.R.H.[O=C([C@H](Cc1ccc2ccccc2c1)N[*:1])[*:2]].L.N.L.V.T.R.Q.R.Y.[am]}$$$$V2.0) yielded a half-inhibitory concentration (IC50) of 0.39 nM.

B1: [Glu^28 ]PYY(22-36) (peptide)
peptide: ASLRHYENLVTRQRY-NH2
As for B1, the IC50 in assay [2] stood at 199 nM.

B2: N-α-Ac-[Glu^28 ]PYY(22-36) (peptide)
peptide: Ac-ASLRHYENLVTRQRY-NH2
In assay [4], B2 registered an SCC EC50 of 3000 nM. Moreover, the IC50 in assay [2] was 44.7 nM.

B3: N-α-Ac-[p.ClPhe^26 ]PYY(22-36) (peptide)
peptide: ASLRXYLNLVTRQRY
HELM: PEPTIDE1{[ac].A.S.L.R.[O=C([C@H](Cc1ccc(Cl)cc1)N[*:1])[*:2]].Y.L.N.L.V.T.R.Q.R.Y.[am]}$$$$V2.0
SMILES: CC(=O)N[C@@H](C)C(=O)N[C@@H](CO)C(=O)N[C@@H](CC(C)C)C(=O)N[C@@H](CCCNC(=N)N)C(=O)N[C@@H](Cc1ccc(Cl)cc1)C(=O)N[C@@H](Cc1ccc(O)cc1)C(=O)N[C@@H](CC(C)C)C(=O)N[C@@H](CC(N)=O)C(=O)N[C@@H](CC(C)C)C(=O)N[C@H](C(=O)N[C@H](C(=O)N[C@@H](CCCNC(=N)N)C(=O)N[C@@H](CCC(N)=O)C(=O)N[C@@H](CCCNC(=N)N)C(=O)N[C@@H](Cc1ccc(O)cc1)C(N)=O)[C@@H](C)O)C(C)C
Regarding B3, in assay [4], the SCC EC50 was 124 nM. The half-maximal inhibitory concentration (IC50) in assay [2] turned out to be 50 nM.

B4: N-α-Ac-[Pcp^27 ]PYY(22-36) (peptide)
peptide: Ac-ASLRH[Phe(4-Cl)]LNLVTRQRY-NH2
Regarding B4, in assay [5], the IC50 is 1.58 nM.

B5: N-α-Ac-[Bth^27 ]PYY(22-36) (peptide)
peptide: ASLRHXLNLVTRQRY
HELM: PEPTIDE1{[ac].A.S.L.R.H.[O=C([C@H](Cc1csc2ccccc12)N[*:1])[*:2]].L.N.L.V.T.R.Q.R.Y.[am]}$$$$V2.0
SMILES: CC(=O)N[C@@H](C)C(=O)N[C@@H](CO)C(=O)N[C@@H](CC(C)C)C(=O)N[C@@H](CCCNC(=N)N)C(=O)N[C@@H](Cc1c[nH]cn1)C(=O)N[C@@H](Cc1csc2ccccc12)C(=O)N[C@@H](CC(C)C)C(=O)N[C@@H](CC(N)=O)C(=O)N[C@@H](CC(C)C)C(=O)N[C@H](C(=O)N[C@H](C(=O)N[C@@H](CCCNC(=N)N)C(=O)N[C@@H](CCC(N)=O)C(=O)N[C@@H](CCCNC(=N)N)C(=O)N[C@@H](Cc1ccc(O)cc1)C(N)=O)[C@@H](C)O)C(C)C
For the molecule B5, the IC50 in assay [1] was 0.22 nM.

B6: [Ala^23,32 ]PYY(22-36) (peptide)
peptide: AALRHYLNLVARQRY-NH2
B6 returned an IC50 in assay [2] above 10000 nM.

B7: N-α-Ac-[Tic^27 ]PYY(22-36) (peptide)
peptide: Ac-ASLRH[Tic]LNLVTRQRY-NH2
B7: in assay [1], the IC50 came to 4.5 nM. In other words, the single-digit nanomolar range.

B8: N-α-Ac-[Thz^26, Phe^27 ]PYY(22-36) (peptide)
peptide: ASLRXFLNLVTRQRY
HELM: PEPTIDE1{[ac].A.S.L.R.[O=C([C@H](Cc1cscn1)N[*:1])[*:2]].F.L.N.L.V.T.R.Q.R.Y.[am]}$$$$V2.0
SMILES: CC(=O)N[C@@H](C)C(=O)N[C@@H](CO)C(=O)N[C@@H](CC(C)C)C(=O)N[C@@H](CCCNC(=N)N)C(=O)N[C@@H](Cc1cscn1)C(=O)N[C@@H](Cc1ccccc1)C(=O)N[C@@H](CC(C)C)C(=O)N[C@@H](CC(N)=O)C(=O)N[C@@H](CC(C)C)C(=O)N[C@H](C(=O)N[C@H](C(=O)N[C@@H](CCCNC(=N)N)C(=O)N[C@@H](CCC(N)=O)C(=O)N[C@@H](CCCNC(=N)N)C(=O)N[C@@H](Cc1ccc(O)cc1)C(N)=O)[C@@H](C)O)C(C)C
B8 yielded an IC50 in assay [5] of 4.5 nM. In other words, the single-digit nanomolar range.

B9: N-α-Ac-[Bip^27 ]PYY(22-36) (peptide)
peptide: Ac-ASLRH[Bip]LNLVTRQRY-NH2
Consider B9, for which the IC50 in assay [1] amounted to 4.46 nM.

B10: N-α-Ac-[Trp^27 ]PYY(22-36) (peptide)
peptide: Ac-ASLRHWLNLVTRQRY-NH2
In assay [1], B10 came in with a half-maximal inhibitory concentration (IC50) of 0.1 nM.

B11: N-α-Ac-[Phe^22,27 ]PYY(22-36) (peptide)
peptide: FSLRHFLNLVTRQRY
modifications: not fully specified; N-terminal acetyl; C-terminal amide
In turn, B11 displayed an IC50 in assay [5] of 11.2 nM.

B12: N-α-Ac-[Tyr^22, Phe^27 ]PYY(22-36) (peptide)
peptide: Ac-YSLRHFLNLVTRQRY-NH2
Turning to B12, the IC50 in assay [5] turned out to be 0.1 nM. Against the preceding molecule, the IC50 is about 110-fold lower.

B13: N-α-Ac-[Thi^27 ]PYY(22-36) (peptide)
peptide: Ac-ASLRH[2Thi]LNLVTRQRY-NH2
The molecule B13 returned an IC50 in assay [1] of 0.095 nM.

B14: N-α-Ac-[Phe^27,Thi^36 ]PYY(22-36) (peptide)
peptide: ASLRHFLNLVTRQRX
HELM: PEPTIDE1{[ac].A.S.L.R.H.F.L.N.L.V.T.R.Q.R.[O=C([C@H](Cc1cccs1)N[*:1])[*:2]].[am]}$$$$V2.0
SMILES: CC(=O)N[C@@H](C)C(=O)N[C@@H](CO)C(=O)N[C@@H](CC(C)C)C(=O)N[C@@H](CCCNC(=N)N)C(=O)N[C@@H](Cc1c[nH]cn1)C(=O)N[C@@H](Cc1ccccc1)C(=O)N[C@@H](CC(C)C)C(=O)N[C@@H](CC(N)=O)C(=O)N[C@@H](CC(C)C)C(=O)N[C@H](C(=O)N[C@H](C(=O)N[C@@H](CCCNC(=N)N)C(=O)N[C@@H](CCC(N)=O)C(=O)N[C@@H](CCCNC(=N)N)C(=O)N[C@@H](Cc1cccs1)C(N)=O)[C@@H](C)O)C(C)C
Consider B14, for which the IC50 in assay [5] was 4.46 nM.

B15: N-α-Ac-[Nal^27 ]PYY(22-36) (peptide)
peptide: Ac-ASLRH[2Nal]LNLVTRQRY-NH2
The molecule B15 came in with an IC50 in assay [1] of 0.39 nM. In other words, the sub-nanomolar range.

B16: [Ala^32 ]PYY(22-36) (peptide)
peptide: ASLRHYLNLVARQRY-NH2
For B16, the half-inhibitory concentration (IC50) in assay [2] is 71 nM. This lies in the double-digit nanomolar range.
